Measured values published in the Immune Epitope Database (IEDB).

Columns and labels:
Test in all cases: IEDB peptide-MHC binding, purified MHC/competitive/radioactivity; ≥ and ≤ were set here for values at or beyond the usual limits of such assays
Settings in all cases: source organism: Bordetella pertussis
HLA-B*35:01 = target: HLA-B*35:01
HLA-B*07:02 = target: HLA-B*07:02
HLA-B*57:01 = target: HLA-B*57:01
HLA-B*44:03 = target: HLA-B*44:03
HLA-A*02:01 = target: HLA-A*02:01

DATLVGAKF
IC50 (HLA-B*35:01): 59.8 µM

RVRALAWLL
IC50 (HLA-B*07:02): 0.413 µM
IC50 (HLA-B*57:01): 0.709 µM

YIWGLYQTY
IC50 (HLA-B*44:03): 0.471 µM

HVSKEEQYY
IC50 (HLA-B*35:01): 69.9 µM
IC50 (HLA-B*57:01): ≥ 70.4 µM

QAIVVGKDL
IC50 (HLA-B*44:03): 31.8 µM

LLGSHVARA
IC50 (HLA-A*02:01): 2.35 µM

KPDRAARVA
IC50 (HLA-B*07:02): 0.461 µM

ALAAIASAA
IC50 (HLA-A*02:01): 12.3 µM

YENKSSTPL
IC50 (HLA-B*44:03): 37.5 µM

RTRGQARSG
IC50 (HLA-B*57:01): 11.8 µM

VEDIGGKNY
IC50 (HLA-B*44:03): 16 µM

HFIGYIYEV
IC50 (HLA-A*02:01): 0.0161 µM
